Measured values: article PMC9949253

Target: BTN3A1 full intracellular domain (BFI) (human)
Assay: ITC; 300 μM BTN2A1 ID271 titrated into a mixture of 60 μM BTN3A1 BFI and 120 μM 4-M-HMBPP; nanoITC, independent fit (NanoAnalyze)

“BTN2A1 intracellular domain (ID271) (domain or fragment)” was tested, and the KD with 4-M-HMBPP was 190 µM, the N with 4-M-HMBPP was 0.08 and the dH with 4-M-HMBPP was -100 kJ/mol.
